Ends that are not written are not given here.

For the experiment, the target named is MDM2 NTD polypeptide (residues 10–139) (UniProt Q00987 10-139). Nature of the experiment: fluorescence polarisation. A general note: In fluorescence polarisation assays a small probe gives low polarisation when free and higher when bound to something large.

On to fluorescein-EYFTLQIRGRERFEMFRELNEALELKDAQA [wild-type p53 OD peptide (residues 326–355)], for which the binding result is listed as “binds”. The result for fluorescein-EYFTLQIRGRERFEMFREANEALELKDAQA (also: dimeric) [dimeric mutant p53 OD peptide (L344A, residues 326–355)] reads “binds”.

Values taken from article PMC5900715 (Genes & Development, 2018).
